# The NTF2 design screens of Basanta et al. (2020)
# Assay: protease stability score; higher = more stable; yeast display proteolysis, trypsin and chymotrypsin;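 further: relative to predicted unfolded state with 0 unfolded-like and 1 meaning tenfold more protease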
sequence,measurement,value
TEEEKHARLVKEHIVEILKTGDEREWMERADPNMYMTVGNKEQHGREQVMHLIERLLKELGIKHSHIKRLELQGDKVHLDVELNFNGVTRDSRLIFIVINGRFHEVIIIIH,protease stability score,0.947
TEEEKHLRELTDRVLHEEETGDWRTLKELADPNVRFDYRYGDYFFHSHGREDVVKHLRHVFQEMRIERVHVKDRKNYNGKVEIHTEIHGVYNGVRFRTEVTIKIVIIDGRIHSHIWEIN,protease stability score,0.305
TEEEKIFKKLMHLILNAFLTGDEELLHEYVDPHARVRVGDKEFHGRENIIHALRMLFHHLGIDHIEIDKVDVFNGRMEVHGTFHFDGKNVESILRFDVYNGRLKKEEIEWR,protease stability score,0.726
TEEEKKSEEFLKKLTHAWRTGNEDTLTHMMDPHVRIDFNGQELIGMEHARRLISELRVEDLEIESITHQGNKVHIRGRDLVLFNGQQRTIDTIFILKKVDGRWIIESIEFR,protease stability score,1.9
TEEEKLARFAWHLRLHAEETGNEELIETLMDPNVKIDIDINGREIHMIGREEYIRWFNEYGFKHVEHVDEREMRVQGDYLDIRGRVIFHVNGQRIDTETQHHILVVDGRIKEIHDIYH,protease stability score,1.69
TEEEKMAEKLWEILVKNAQTGDEDKVLKLIDPHTRFTFNGQTHHGRDTFHHLWKILGVDHVEPHSIEVQGDKAHIDSRLYFNGQVRTYTIIVEKINGRWIVTTIDLH,protease stability score,1
TEEEKSLKEVLERYIKAIRTGDWEILRHLADPRTRMDINGRDIHGMEEITNELVEQIRRFDHIDFKFHHIEVYGDKADVHGTLVIKINGVEIRHSTKEFWYKVNGRWILHHSEIH,protease stability score,1.21
TEEENMNEENLDLAVHLMHTGDEEHLFDRLDPHARLEYGDKKYHGREIVEEVLLTLIRELGVDHIRVRRVKFVGDKLHIDSEFTVGDKVFRLHLVARKINGRWWLHSMRVQ,protease stability score,1.34
TEEEQLLKEFAELYLRNWWTGNEDKLLELADPHARSVVNGREIHGRENMYKLIRLWLERFKNIQIHYDDVKFQGNYVKLHGHMTVGDKTTHIIIHILVIDGVIKELSLEVN,protease stability score,1.56
TEEERDMKHLAELALESFLTGDFEIIKKLADPNVRSVIDGRDYHGMEEVHRYLEELLRMLGVKVSRIEDERLRIINGRVTVETDIRLNVDGKIFRVTLHFFFHKFNGRWRIEEIRIHIE,protease stability score,0.537
TEEERDSKLAFQLLFKTLETGDEREHREFIDPNMRLHVGNYEFIGWERAVHIMRRIDHVQRIEIEDTYTIGNKVTIDGTDYIEVGDFTERIRSRWIILKVDGKWFIHHVELR,protease stability score,0.679
TEEERDTKIAVDLFEEYSRTGNEDNMRELADPNVRLKINGVDYVGWKHMTKLLNHWRVKTVNIRHVEIQGDYARSDVEEEVLINGKEDRRTSRLILFKVNGRWIIKSLEFD,protease stability score,1.28
TEEERDVEKFIRDTLHYLHTGDEDAVAELMDPNVKFIIGDKHLHGMEALEYWSERFDHFHVRRLEIHHFEIINGRVHIELRIWVEVRYNGRIFELEFRSEYIMYKIDGKWVIKHVRHT,protease stability score,1.56
TEEEREFKEFVEHWMRAIETGDEELLYKLLDPNTQLNYNGVNNHGWHVIKHLEELLGIKVREMRIRDFHHIGDKIVLDVEDIIRIDGRTIILRTEILIVKVDGRWHLKSERVK,protease stability score,0.965
TEEERHIKEMLELFLEFFKTGNEDLFKELADPHVRLHLNINGKKERVHGMDHAVKWLSQLRVHSFHLKDERAVDGVNEVDQESDVEWNGQRFETTVRLHVYIVNGKLHHLSIEIK,protease stability score,1.19
TEEERIDHEYEERLKHSFETGDEETIKKMIDPNARVEIDGKDHHGREVMAHLISRIDVLHTVDTTDVSIQGDKINLNLRVHGHVNGKHIDRTLHVRIRKINGKWHIEHFKII,protease stability score,1.04
TEEERIMLEAIDLLIELWRTGDWKLLDEMVDPRVRIEIGEFTHHGREEYLRILLEEVRRADHRRYHIDHLEIINGRVILNGFIDLTFNGVHLRIREHLVAEKVNGRWLLREIRQR,protease stability score,1.72
TEEERIRRHAVELWVRSMRTGDEETSVDLADPRTKADINGVEIHGMEIVSKFFREMLEQYDVREFHIHSIDVIGDKVVTDMELILRVGDFENRTHIEFIVHKFDGKWRIEEIRLH,protease stability score,0.934
TEEERLHHELAKLMIHLMHTGDFDKLIKLVDPHAKLDEDVDGREVHVHGMEKWFEYLKEKFERIKNITIHIRDWRVYNGRVEIHVEYDINGKHVDTTIRLDVVNGRVKRIQIEQK,protease stability score,2.16
TEEERSTRIAWEIWEMVHKTGDERLIRRFADPNVRIQIGEYNHHGREELENHTKRIDHLHVQDSDVKRVHHFDGQVHIDVHEIIHLEFDGVREDIKRRAHFVVVKYDGRWYLHHVKFH,protease stability score,0.937
TEEESQAREALLIVLELLRTGDWRSMEKYADPHTLQVFNGRHLHGRELFSDFLEEYERKLGVDRIRVHIHHLDVINGQLRVDTTIDYGDKHHRMIIIINKYDGRWELEQLRIT,protease stability score,0.341
TEEETETRNLLELFIRSLHTGDEDLTKRLLDPNVRLELGEWEAHGRESVSEVLRLLWELLGVKHIEHHVHDMRVFNGRVHADTRVIMVFDGREHRIETELIVVKIDGRWFIKSIHIR,protease stability score,1.61
TEEETRLREFMDRLLKIITTGDEKRFKDLADPHVRLFIDGVTIHGRDEAHEMWEIFGMKVKSTHVHEIHIQGDKVNIDTRLSGHFNGRDHIWEAHIYVVKIDGRWILEYIEIR,protease stability score,1.94
TEEHDEAHEVLKIFLEIHETGDEDDMKRLADPHARLNIGDKEYHGWKHFIEWLHKIKNVTSEIHHVHVYNGKVKTEVDLHVNGQDVKIILIMEKINGRWILQSVEVR,protease stability score,1.29
TEEHEDIMHFILEWTNSLLTGDFKRVKEMADPHVRVLIVIGDKELHLHGREWILKRTHDIVREMRVEIILHHVDSQGNFAHVDSTLRIEVDGVRFERKTRIHMDIVNGKLKSHEHRIE,protease stability score,1.29
TEEHEEARRAMKIIVDLLDTGDWKTISRYFDPNVRFEVGDKTYHGREEVLNRFIELGHSNIDVKLHHMELYGDKVVIDSRMNVDGRTHEIEWHSRKYNGRWRLHELHVR,protease stability score,1.12
TEEHEKSEIAVELIIRTLVTGDEELMNKLIDPHVRIEFENRELVGRETYTKIYSRELRELGWEFVTTELRHIETQGEKVELQGDLVINGKRIKVHLYFHKYNGVWFLKRVHYE,protease stability score,1.19
TEEHELFEKLARLIIKWLHTGDEERINEYADPNYRTHIGDKTVIGREEREKLIRWLLEHMRIDHIELKDIRVINGKVEIDGKIHGQINGQEVTRHSIIYLIFVDGVIKHISIEWR,protease stability score,1.35
TEEHEVALRFWRMFLEAITTGDEKRIKELLDPHVQIEINGKHLHGMETLIHRINEIRETWKHVEIKTVEFYNGQIHSHFRVHYVFHVNGKEIERDTDVLLILTKVDGRWHIKSIHIH,protease stability score,2.52
TEEHHFAERVVREWLKLYYTGDEERNETLADPNVKLDVNGRHYHGRESVSEFLREVYEHWRIREFHIHEFDVFNGVSHVDGELILEINGQKHRYRVRIIIVVINGRLKHIELNQV,protease stability score,1.56
TEEHKFVKDFFIHMIRAWITGDEKELHRLFDPHTKVRIGDYVSHGMERTLEIWHKLWKELGFKHLEVREVRAQGDKSHTDVVYHVDGREKKVHIELEVFNGKATHLELDEK,protease stability score,0.519
TEEHRATHDYVELLIRAARTGDEDIWKTMFDPDDKLVINGRTHHGREEAVRLLREIRIQIDHVDLREVRVYDGVVEIHTHTELRIIQGDKHLEIRTDQEVHILKIDGRWSNSIVIIH,protease stability score,1.06
TEEHREIKESVEQWHKDLHTGNEEMLVRLMDPRMRLQIGDKTLHGREEATRWAREFHKRYDHIHDFKIKDYDHYGNYIIIIGTLDGIVDGQRVRTDVRLIFVKVNGRWTIESEEHE,protease stability score,0.346
TEEKEDKDRWYEEVLRAVLTGDFHFLSRLADPDVRVEYGDKEHVGREEVSRFWQEFFERIKNVTIELHDYKVQGDKIHWLINLRFNGREHIVHIELIIIDGRIHEIRVQIR,protease stability score,2.02
TEEKEEIDHAFELIWKAIDTGDEKFMTEQADPHTLTILVVDGQEIRLHGMEEFVRTFRELGIKHVRLEDIRIQGNKVEIHIRTNFNGRESEMRVHMEKVDGRWVLRSHRVIFK,protease stability score,1.36
TEEKHELEKLAKIMFEIIETGDEKTWDELLDPNMRSDVNGVENIGREKVDKAILHYIKRIPNVRIQFTDMHIQGDKVIIRTEVHIGDYREELIIEVVVVNGRFKSFRLTLRRE,protease stability score,1.22
TEEKHMVLKIMEQVLQKWVTGDEDVLDHLLDPDDRLHLLQGDKFVEYHGWEEANKAWNEMRITHIELHDIRAQGDKVTSDGTLDGHFNGRRTRVRVRVHLIIVNGRLKEVELQLH,protease stability score,0.924
TEELEELEKMLELVLRSFHTGDEHLLERLADPHAKYHFNGKNLHGWDKLSHLWRKAGVEKVESRIRDLELQGDYVNTDVEMRYNGRTEEVEFRVKKIDGRWIIKEIIIR,protease stability score,0.809
TEEQEESTRAYEEILQYIRTGDERQMTKYADPHVKLIFNGKEIHGREMFVELVKQYGIDHHHIHNWDFINGRVRMETHVRQGDKHDNAHIDMTKFDGKWIVRLFVFV,protease stability score,0.856
TEEQEIIQKFLDEMMEYLETGDEHSLRRLADPHARWDVNGREYHGRELFITFFSELTHKLGWTIQKIEIESKRRVGEYVSFRMTIHSEVDGRHKVIIYNFFVFKVNGKWFLKSFKEE,protease stability score,1.47
TEEQHEARHLFQLWVYSVITGNEHILHNLVDPHYLLDVGDYHVHGREDTLKVLLEARVEDFRVRDVRVYDGRLESDIEFTGHFNGRKINNKVEMTQEKIDGRWYLKRTKVT,protease stability score,1.77
TEEQTHLIRLIEQFVRDEITGNWKSVLKLLDPEVKVILKINGREIHLHGREEITRWVHEWVRHIRVFIEIHHSRAFDGVVEMDTRIIIDIDGVHLSQETRINIYVVDGVLKSMEIHVK,protease stability score,1.65
TEEREHDHRIFNLFLHWWMTGNEEEIHKYIDPNVRMRLDVNGVEIRDVGREMVMEMLRILYEFLGIDVSRIHSHDTQGDKVVLHGRNHVNGRDIEVHIEWKVINGKLKEVRIEIRER,protease stability score,1.57
TEERKEMEEAWDRFVHNIHTGDEHSLLKLVDPHVRVQIGDKEVHGWRYLLQLLRDIITKVKNLTVDLRIEDERMIGNYIELEVILVINFENRYHFIRYHVRHEKVDGKWHLKEISRD,protease stability score,1.08
TEESQIALEVLIKTARNKYTGDEDSVRHMADPNVQLHFDGQEIHGMDIIRKMIKHIRIDIEDSRSRDHHVQGDKIHDQTEVVLLIEYNGVHIRRQVRVHIHIWKINGRWILHSEIFE,protease stability score,1.41
TEEVHRYKNMLELFDHAVRTGNEDLLKILFDPNTRIEVGEYHNHGWEAIEFFLKRVDHEHIEDSKLTSHHVQGNYLESHGHMHATLHFNGKELRIHTHVRWHLDKFNGRWVIHSIIIN,protease stability score,1.33
TEEYRHVEEVIRMTFELLRTGNEQELEDRADPHAKSNVNGQEIHGRERFTRWFLEMITHLGVKHVRVRHYTVVNGRVIVHLEFDFDGVKIDYTVVIWKINGKWFIKISHEEHH,protease stability score,2.09
TEFEQEVERMIRMWRHLYETGDEKTLSHLVDPNVRVIVDGKHIHGREQVVNEIRRAHIVDDFEIRLEDTKYFEGRAVFTGIIREHGHVDGRTVHKSTKVEIDVVKVDGQWLIHRINFH,protease stability score,1.54
TEHDEDLDRWYDVLKHVLHTGDEEAKAKMVDPHVREDVNGQELHGRDDVRRLDRELGVNHFVLRVERLNIQGNKITMRGTLELTVGDKTERRHVIIHMIKIDGKWFTHHEQIR,protease stability score,1.04
TEHDHDTERAFKEWFDVVRTGDFHRLERMLDPNVLSRIDGKLIHGRERLLKFWQEYLEHLGANHHEIHHVDIQGDKINIDIRVEYGDKRFTVHVHASKINGQWRVHENEKQ,protease stability score,1.02
